Reference: the supplement of paper PMC12042874
± gives the uncertainty stated by the source.

experiment: amyloid nucleation score (Sup35N fusion, yeast selection) (log enrichment); library NNK1; higher = more nucleation; inactive = no reads after selection
Method in brief: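 The nucleation score is the log enrichment of output over input reads, calculated with DiMSum and centred on the mode score of non-aggregating sequences. Sequences with under 100 input reads were excluded. Reads came from Illumina sequencing of plasmid inserts from psi-negative yeast expressing Sup35N fused to peptides of 20 random codons, induced 24 hours with 100 μM copper sulfate and grown 7 days at 30°C without adenine and uracil.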

| Substance | amyloid nucleation score |
| --- | --- |
| TYQRRL | -0.414 ± 1.1 |
| KDVVISVGGMSVVLFSSRPH | 4.52 ± 0.091 |
| DFAYMSVLWIVVMLRGFLVK | 0.639 ± 0.45 |
| SVRSVRSNPRFTSHLPCSKK | -0.413 ± 0.54 |
| IRPINKYRIVLIWVSFVRGE | 0.718 ± 0.73 |
| ANDKHLVLGWAQVVTQMDGR | 0.731 ± 0.86 |
| ESLFLVCRPRRQVFIVSCRS | -0.716 ± 0.38 |
| SRLEHRFLICNPELYVNFFM | 6.799 ± 0.047 |
| LFTTWMSRGDIVSYNFFL | 7.681 ± 0.049 |
| RVYILFRHLVYSGGKFSVFI | inactive |
| QSLDE | -0.44 ± 0.28 |
| IVLWCTWYYNWNWPSALFRM | -0.192 ± 0.78 |
| IVSMRL | 0.216 ± 1.4 |
| NAQWKHETHIFCSAMFVTEC | 0.878 ± 0.45 |
| LFCVSDSPCVCGRHSISYDW | -0.601 ± 0.9 |
| LEVMRWYWESLLACISLCD | 0.853 ± 0.74 |
| IRLIKIPVKFKFVSTMCSGC | -0.1 ± 0.93 |
| FFRDSHYIQRDKSQPSRGSN | -0.269 ± 1.1 |
| SSFYTRFWVGSHMCFAGMPK | 0.203 ± 1.2 |
| YLVRVMFWLLGRCEA | inactive |
| PLCSNRIERMLLSVGCGRRR | -0.416 ± 0.44 |
| AWIRGQTVSCLYYAEGLELG | -0.448 ± 0.71 |

| Substance | amyloid nucleation score |
| --- | --- |
| RLWIVPLGLWCLRHRVCCRP | -0.246 ± 0.65 |
| RNKSGSGYKLFVSGELAQQM | inactive |
| WPLLPVELNVSTRHENGLLM | 1.4 ± 0.34 |
| YMDGVPG | 0.042 ± 1.2 |
| WHWVAEWSMRTYSGLSIECY | inactive |
| VKTHSVFSMMVV | 0.558 ± 0.51 |
| PECTSVRATGIGDWWEDRGA | -1.46 ± 2.7 |
| FFILYINSQLIREVILRRAH | -0.128 ± 0.23 |
| RNTFHFNNMALPVLQT | -1.23 ± 0.77 |
| LVRRFLSWRIQSLDPIKK | -0.425 ± 0.76 |
| IYRGSNRLRRIGWEFNVALD | -0.819 ± 0.33 |
| TSIFDEMSHVEEVRRTMIRG | 0.209 ± 0.35 |
| FRNSLSYIVLSCLAMFFNDG | 0.967 ± 0.32 |
| VSAND | -0.547 ± 0.4 |
| FTRTLMLMIRACCWHRFQLT | 0.008 ± 0.91 |
| VNQFLRAMVPLKLRYRYFCL | 1.02 ± 0.74 |
| CFSLWY | 0.089 ± 0.29 |
| AISVGVFRVWC | 3.53 ± 0.09 |
| CQLSNTSIACSLYNLHCRSW | 4.42 ± 0.13 |
| PDDNMMVLGVSSADNLLIRL | 0.579 ± 0.66 |
| GLIYTTSLMRVLNSVVGL | inactive |
| AFGADKTRYMSVFTKCVS | 0.253 ± 0.37 |

| Substance | amyloid nucleation score |
| --- | --- |
| LFRGDGFRKLLFWNSSTFET | 2.67 ± 0.12 |
| MTSCMRWAVNRYSFLLWKAN | -0.416 ± 0.29 |
| NSSPNKCFAGSQGSFISFWD | -0.599 ± 0.62 |
| ALSSWLLFGSTCQDSDCFKD | 1.16 ± 0.76 |
| LFGLNWYNNGGRKSGCSDWA | -0.503 ± 0.98 |
| KGELLGDWGAIYHWCF | inactive |
| SGGYLADYPLRVNLLFFNFV | 0.431 ± 0.43 |
| LHTRGLEMFRIGPSCCKWPL | 1.49 ± 0.68 |
| GRVVAHLNRRHR | 1.38 ± 0.43 |
| TICVYSG | 0.008 ± 0.49 |
| YDRVLNLSDSWCTNAAPWWG | 0.394 ± 0.43 |
| LFPRVMN | 0.338 ± 0.58 |
| HRSCCNKRRRERNFSDWTGV | 0.542 ± 0.77 |
| LRKVGQGI | 0.066 ± 0.67 |
| FAWSRAACFSIPVRISVSLG | 1.14 ± 0.72 |
| VWCVFFLVLYFYR | 0.422 ± 0.57 |
| VFSDTPALCIDGLKLFAMVR | -0.182 ± 0.3 |
| YEFLIWVCPTALRRVVSSVV | 0.189 ± 0.74 |
| VWLGTEFFVSCLACMLVSVL | -1.05 ± 0.54 |
| TFEYDT | 0.332 ± 0.61 |
| MQWSYV | 0.32 ± 0.37 |
| CVPDGKFRSKRIPGRNFPLL | 0.278 ± 0.42 |

| Substance | amyloid nucleation score |
| --- | --- |
| DGSYTWWAFGSIQRCEGLTV | 0.177 ± 0.47 |
| SSLWTCREVTDIFIHNCAMI | 1.21 ± 0.79 |
| IQAMGGRMSRAV | -0.073 ± 0.77 |
| KMTCCSGSINDGYLYCVYNV | 6.56 ± 0.071 |
| SVISRIKCRASRDGLHHGNH | 0.862 ± 0.28 |
| VKFCCFGLLCELYSGHSGRM | 1.33 ± 0.15 |
| WFTDGT | inactive |
| IWHFASCAYGGVGSKGDPSD | 0.67 ± 0.69 |
| KKFVNFWVMSLYLNSDYSP | inactive |
| TLLSNWVEMNPLYFMLDLPY | 0.225 ± 0.48 |
| ILRPSSFNMVALDLNISLPK | 4.82 ± 0.087 |
| GDQSM | 0.262 ± 0.31 |
| VVTQLLEFVSITSEGWSQHM | 2.57 ± 0.096 |
| VFYQLCDWYNFGF | 5.68 ± 0.1 |
| FSNNLHLWAITSVLNIQTSN | 6.245 ± 0.053 |
| SFVSRGCSYCC | -0.489 ± 0.59 |
| YTSIGI | -0.144 ± 0.45 |
| YPCCKICDYIKS | -0.018 ± 0.23 |
| TNWAVKGWAVECRRHSGPNT | 1.45 ± 0.79 |
| RKNAFDFDAS | -0.099 ± 0.42 |
| PLTGAGFTIEML | -0.132 ± 0.36 |
